Here are results for 5 molecules from US6855495B1, “Toso as a target for drug screening” (Rigel Pharmaceuticals, Inc., priority 1998, dated 2005).

Read-outs that look alike come from different tables or passages of the source.

The conditions of data set [1]: Gamen et al. 1996; cited from earlier work.
The test system of data set [2] is Jurkat.ecoR cells. Put plainly: FADD-induced apoptosis in Jurkat.ecoR cells. The format is cell-based, human. The following applies: 24 hours postinfection with pBabeMN-FADD. Here is the method: Fas-mediated apoptosis is activated through FADD. For FADD-induced apoptosis, mouse FADD (a gift from Dr. Angeles Estelles, Dept. Mol. Pharm., Stanford Univ.) was ligated into pBabeMN retroviral vector. Jurkat.ecoR cells expressing Lyt-2-α′ or Toso were infected with pBabeMN-LacZ or pBabeMN-FADD. After 24 hours infection with FADD, the cells were stained with ethidium bromide and acridine orange and counted the apoptotic cells. The effect of Toso on FADD-induced apoptosis was investigated by infecting Jurkat.ecoR cells expressing Lyt-2-α′ or Toso, with pBabeMN-LacZ or pBabeMN-FADD. The reinfection efficiency was approximately 40% using pBabeMN-LacZ. Jurkat.ecoR cells were infected with pBabeMN-Lyt-2-α′ and pBabeMN-Toso. Infection frequency of pBabeMN-Lyt-2-α′ was determined to be 72%. Jurkat.ecoR cells expressing Lyt-2-α′ or Toso were infected with pBabeMNLacZ or pBabeMN-FADD and apoptotic cells were counted at 24 hourrs postinfection. Infection frequency of pBabeMN-lacZ in Jurkat.ecoR cells expressing Lyt-2-α′ and Toso was determined to be 39% and 43%, respectively.

The test system of data set [3] is Jurkat.ecoR cells. The data set can be described thus: anti-Fas mAb-induced apoptosis in Jurkat.ecoR cells expressing the construct. The data set is classed as cell-based, human. The following applies: for anti-Fas mAb-induced apoptosis: 10 ng/ml anti-Fas mAb, 24 hours, in words. How it is done:
Jurkat cells that express the receptor for ecotropic murine retroviruses (“Jurkat.ecoR”) were infected with retroviruses that express Toso and control vectors, pBabeMN-Toso, pBabeMN-lacZ and pBabeMN-Lyt-2-α′(α′ form of mouse CD8α chain) (Tagawa, et al. (1986)). Jurkat.ecOR cells were infected with pBabeMN-lacZ, pBabeMN-Lyt-2-α′, and pBabeMN-Toso. At 72 hours postinfection, infection frequency of pBabeMN-lacZ and pBabeMN-Lyt-2α′ were determined to be 45% and 58%, respectively. Jurkat cells were then cultured with 10 ng/ml anti-Fas mAb for 24 hours. After 12 or 24 hours, the cells were stained with 100 μg/ml ethidium bromide (SIGMA) and 100 μg/ml acridine orange (SIGMA). Apoptotic cells and non-apoptotic cells were identified with UV microscopy as described (MacGahon, et al., The End of the (Cell) Line: Methods for the Study of Apoptosis in vitro, in Methods in cell biology, L. J. Schwartz and B. A. Osborne, eds., San Diego, Calif., Academic Press, Inc., pp. 172-173 (1995)).
Jurkat.ecOR cells were infected with pBabeMN-Lyt-2-α′. HA, pBabeMN-Toso. HA, pBabeMN-TosoΔ(377-390). HA, pBabeMN-TosoΔ(334-390). HA, pBabeMN-TosoΔ(281-390).HA, pBabeMNTosoΔ(252-390).HA and pBabeMN-TosoΔ(29-187).HA. Jurkat cells were cultured with 10 ng/ml anti-Fas mAb for 24 hours and apoptotic cells were counted. […] Deletions of regions of the cytoplasmic domain of Toso from 334 to 390 still inhibited apoptosis. Moreover, a deletion of Toso lacking the entire cytoplasmic domain still retained substantial anti-apoptotic ability. Thus, the cytoplasmic domain of Toso is not absolutely required for the anti-apoptotic effects on Fas antibody-stimulated cells.

A further data set concerns cFLIP. Put plainly: semi-quantitative RT-PCR of cFLIP mRNA expression. The format is cell-based, human. The settings on record: Jurkat.ecoR cells. The source says:
Recently several groups have reported cFLIP is a caspase-8 inhibitor. We performed semi-quantitative RT-PCR to detect […] expression. To detect […] expression, a 1.1 kbp fragment (998-2061) of the cFLIP gene (U97074) was amplified with primers 5'-[NT] ID NO:32) and 5'-[NT] ID NO:33) for 35 cycles as described above. The sequence of the 1.1 kbp PCR product was verified using cycle sequencing ready reaction kit (Perkin Elmer, Calif. 94404, U.S.A.).

Data set [4] concerns Jurkat.ecoR cells. Put plainly: staurosporine- and ceramide-induced apoptosis in Jurkat.ecoR cells. The data set is classed as cell-based, human. The settings on record: 24 hours, any concentration. Here is the method:
Jurkat cells that express the receptor for ecotropic murine retroviruses (“Jurkat.ecoR”) were infected with retroviruses that express Toso and control vectors, pBabeMN-Toso, pBabeMN-lacZ and pBabeMN-Lyt-2-α′(α′ form of mouse CD8α chain) (Tagawa, et al. (1986)). Jurkat.ecOR cells were infected with pBabeMN-lacZ, pBabeMN-Lyt-2-α′, and pBabeMN-Toso. At 72 hours postinfection, infection frequency of pBabeMN-lacZ and pBabeMN-Lyt-2α′ were determined to be 45% and 58%, respectively. Jurkat cells were then cultured with 10 ng/ml anti-Fas mAb for 24 hours. After 12 or 24 hours, the cells were stained with 100 μg/ml ethidium bromide (SIGMA) and 100 μg/ml acridine orange (SIGMA). […]
Staurosporine is a bacterial alkaloid that is a broad spectrum inhibitor of protein kineses (Tamaoki and Nakano, Biotechnology, 8:732-735 (1990)) and induces programmed cell death in various cell lines and dissociated primary cells in culture (Ishizaki, et al, J. Cell Biol., 121:899-908 (1993); Jacobson, et al., Nature, 361:365-369 (1993); Raff, et al., Science. 262:695-700 (1993)). Ceramide generation is implicated in a signal transduction pathway that mediates programmed cell death induced by Fas and TNF-α (Cifone, et al., J. Exp. Med., 180:1547-1552 (1994); Obeid, et al., Science, 259:1769-1771 (1993)). pBabeMN-LacZ infected cells were counted by microscopic observation; infection frequency was determined to be 57%. […]

In a further data set the test system is Bcl-2 and Bcl XL. The data set can be described thus: Western blot of Bcl-2 and Bcl XL expression levels in Toso expressing cells. The format is cell-based, human. The following applies: data not shown. Here is the method: The downstream effects of Toso on known inhibitors of apoptosis, were evaluated by western blot analysis of Bcl-2 and BCI XL expression levels in Toso expressing cells. Bcl-2 overexpression can block Fas-induced apoptosis as well as staurosporine-induced apoptosis (data not shown). No change in the levels of expression of Bcl-2 or BcI XL was observed by Western blot (data not shown).

The test system of data set [5] is Jurkat.ecoR cells. The data set can be described thus: PMA/Ionomycin-induced apoptosis in Jurkat.ecoR clones. The settings on record: five pBabeMN-Toso-infected clones; 10 ng/ml PMA and 500 ng/ml Ionomycin, 24 hours. The data set is classed as cell-based, human. The source says: However, following activation with PMA/lonomycin one third of Jurkat cells were clearly resistant to anti-Fas mAb induced apoptosis.
We further tested whether Toso expression could rescue activation-induced programmed cell death. We randomly picked five pBabeMN-Toso-infected Fas resistant Jurkat T cell clones and used these to assay the inhibitory effect of Toso on PMA/lonomycin-induced apoptosis.

The next data set has as its system human cell lines. Put plainly: anti-Fas mAb-induced apoptosis in several human cell lines overexpressing Toso. The data set is classed as cell-based. The following applies: data not shown. The source says:
Toso was expressed in several human cell lines including Jurkat cells, CemT4 cells (human T cell leukemia), SupT1 cells (human T cell leukemia, a kind gift from Dr. Cleary, M. L., Stanford Univ.), Oli-Ly8 cells (human B cell line; transformed with EBV), AMK cells (human B cell line; transformed with EBV), both a gift from Dr. Negrin, R. S., Stanford Univ., Reh cells (acute lymphocytic leukemia; non T; non B), HL-60 cells (promyelocytic leukemia) and HepG2 cells (hepatoma) using pBabeMN-Toso IRES neo to allow cotranslational selection with Geneticin (GIBCO BRL).

A further data set deals with caspase-8. The data set can be described thus: Western blot of caspase-8 processing after Fas activation. The format is cell-based, human. The following applies: 50 ng/ml anti-Fas mAb, 6 hours, versus control Jurkat.ecoR cells. How it is done:
The effect of overexpression of Toso on processing of caspase-8, which associates with FADD, was evaluated. […] To detect caspase-8, whole-cell lysates (2×10^6 cells per lane) were resolved by SDS-PAGE, transferred to an membrane and processed with goat anti-Mch5 p20 antibody (Santa Cruz Biotechnology, Inc., Santa Cruz, Calif. 95060, U.S.A.) as described above.
On the technique in general: In western blotting, separated proteins are transferred to a membrane and probed.

Data set [6] deals with Jurkat.ecoR cells. The data set can be described thus: TNF-α-induced apoptosis in Jurkat.ecoR cells. The settings on record: 1 μg/ml TNF-α with 0.1 μg/ml CHX, 12 hours, versus Lyt-2-α′. The data set is classed as cell-based, human. How it is done:
The Fas receptor has homology to the TNF-α receptor, and these two receptors share analogous signaling systems as well as several intracellular mediators (Hsu, et al., Cell, 84:299-308 (1996)). The protective effect of Toso against TNF-α-induced apoptosis was tested by culturing Jurkat.ecOR cells expressing Lyt-2-α′ or Toso with 10 ng/ml of anti-Fas mAb or 1 μg/ml of TNF-α in the presence of 0.1 μg/ml of cyclohexamide (CHX) for 12 hours and apoptotic cells were counted. The infection frequency of pBabeMN-Lyt-2-α′ was determined to be 58%. […] Thus the TNF-α and Fas signaling pathways may converge at a common point that can be inhibited by Toso.

As for DEVD-CHO, the ceramide-induced apoptosis result in data set [1] is on record as “does not inhibit”.
As to “Lyt-2: full length Lyt-2 (mouse CD8α), control [reference compound]”, the “massive / rapid cell death in 70Z/3 cells” value in the data set with 70Z/3 cells (after retroviral infection, in words) is given as “did not induce rapid cell death”.

B1: FADD: mouse FADD expressed from the pBabeMN retroviral vector, apoptosis inducer (protein, UniProt Q61160 1-205, looked up)
FAS-associated death domain …: MDPFLVLLHSLSGSLSGNDLMELKFLCRERVSKRKLERVQSGLDLFTVLLEQNDLERGHTGLLRELLASLRRHDLLQRLDDFEAGTATAAPPGEADLQVAFDIVCDNVGRDWKRLARELKVSEAKMDGIEEKYPRSLSERVRESLKVWKNAEKKNASVAGLVKALRTCRLNLVADLVEEAQESVSKSENMSPVLRDSTVSSSETP
With B1, the “apoptosis induced in control Jurkat cells” value with Jurkat.ecoR cells [2] is recorded as 45%.

B2: 4.8.HA: full-length Toso with C-terminal influenza hemagglutinin (HA) tag (protein)
chain: RILPEVKVEGELGGSVTIKCPLPEMHVRIYLCREMAGSGTCGTVVSTTNFIKAEYKGRVTLKQYPRKNLFLVEVTQLTESDSGVYACGAGMNTDRGKTQKVTLNVHSEYEPSWEEQPMPETPKWFHLPYLFQMPAYASSSKFVTRVTTPAQRGKVPPVHHSSPTTQITHRPRVSRASSVAGDKPRTFLPSTTASKISALEGLLKPQTPSYNHHTRLHRQRALDYGSQSGREGQGFHILIPTILGLFLLALLGLVVKRAVERRKALSRRARRLAVRMRALESSQRPRGSPRPRSQNNIYSACPRRARGADAAGTGEAPVPGPGAPLPPAPLQVSESPWLHAPSLKTSCEYVSLYHQPAAMMEDSDSDDYINVPA
modifications: left off: small tags and cut ends
notes: full-length Toso with C-terminal influenza hemagglutinin (HA) tag
Turning to B2, in the data set on 70Z/3 cells, the “% Viable Cells” value was 30 ± 4% and the “massive / rapid cell death in 70Z/3 cells” value is “massive cell death was observed”. For the same molecule, the “anti-Fas mAb-induced apoptosis” value in the data set with Jurkat.ecoR cells [3] was “markedly inhibited”.

B3: Toso: novel 390-amino acid Ig superfamily type 1 membrane protein (SEQ ID NO:2), expressed from retroviral vector pBabeMN (protein, listed as Homo sapiens)
chain: MDRWLWPLYFLPVSGALRILPEVKVEGELGGSVTIKCPLPEMHVRIYLCREMAGSGTCGTVVSTTNFIKAEYKGRVTLKQYPRKNLFLVEVTQLTESDSGVYACGAGMNTDRGKTQKVTLNVHSEYEPSWEEQPMPETPKWFHLPYLFQMPAYASSSKFVTRVTTPAQRGKVPPVHHSSPTTQITHRPRVSRASSVAGDKPRTFLPSTTASKISALEGLLKPQTPSYNHHTRLHRQRALDYGSQSGREGQGFHILIPTILGLFLLALLGLVVKRAVERRKALSRRARRLAVRMRALESSQRPRGSPRPRSQNNIYSACPRRARGADAAGTGEAPVPGPGAPLPPAPLQVSESPWLHAPSLKTSCEYVSLYHQPAAMMEDSDSDDYINVPA
In the case of B3, the cFLIP expression entry in the data set on cFLIP was “induced”. Further, in the data set with Jurkat.ecoR cells [4], the ceramide-induced apoptosis entry is “not resistant” and the staurosporine-induced apoptosis result is on record as “not resistant”. In addition, the “levels of expression of Bcl-2 or Bcl XL” value with Bcl-2 and Bcl XL is “No change”. Besides, in the data set on Jurkat.ecoR cells [2], the “FADD-induced apoptosis in cells constitutively expressing the construct” value was “failed to induce apoptosis”. The PMA/Ionomycin-induced apoptosis entry in the data set with Jurkat.ecoR cells [5] was “significant resistance”. The “apoptosis induced by anti-Fas mAb” value with human cell lines (all human T cell lines and B cell line Ocl-Ly8) is reported as “inhibited”. In the data set on human cell lines (the other cell lines), the “protection against Fas-induced apoptosis” value is reported as “no significant protection”. The “processed form (p20) of FLICE after Fas activation” value in the data set on caspase-8 is reported as “greatly reduced”. Also, the “dead cells after infection” value with 70Z/3 cells (70Z/3 cells infected with pBabeMN-Toso) is recorded as “about 70%”. The TNF-α-induced apoptosis result in the data set on Jurkat.ecoR cells [6] is “protected against TNF-α-induced apoptosis”. The “Fas induced apoptosis in the presence of CHX” value in the data set with Jurkat.ecoR cells [3] (10 ng/ml anti-Fas mAb with 0.1 μg/ml CHX, 12 hours) was “inhibited Fas induced apoptosis”. Besides, in the data set with Jurkat.ecoR cells [3], the “anti-Fas mAb-induced apoptosis” value was “resistant to Fas-mediated apoptosis over a range of antiFas dilutions”. In the data set on Jurkat.ecoR cells [3] (pBabeMN-Toso-IRES-GFP-infected cells, five days with 50 ng/ml anti-Fas mAb), the “surviving Jurkat cells that expressed GFP” value was 99.7%.
